Measured values from patent US12233115B2, “Long-acting parathyroid hormone” (Extend Biosciences, Inc., priority 2022, dated 2025).
pKd: −log10 of the molar value. Where two headings read alike, the source gives them in different places.

Tests used:
[1] = Single dose pharmacokinetics of EXT607 in male cynomolgus monkeys; type: in vivo; conditions: cynomolgus monkey, in vivo, sc; NHP, after subcutaneous dosing; read-out: terminal half-life
Method: In a single dose pharmacokinetic study, EXT607 was formulated in PBS and groups of male cynomolgus monkeys (n=3), weighing approximately 4 kg each, were dosed at a volume of 1 ml/kg as follows: Group 1, 20 μg/kg intravenous; Group 2, 7 μg/kg subcutaneous; Group 3, 20 μg/kg subcutaneous; Group 4, 70 μg/kg subcutaneous. Blood (1.0 mL) was collected via the jugular vein cannula, transferred into tubes containing K2EDTA, and kept on wet ice until processed for plasma. Blood samples were collected at 0 (pre-dose), 0.083 (IV only), 0.25, 0.5, 1, 2, 4, 6, 8, 12, 24, 36, 48, 60 and 72 h post-dose.
(§1) Pharmacokinetic parameters were determined from the plasma concentration versus time data (Table 5) by a non-compartmental analysis with uniform weighting using Phoenix® WinNonlin® Version 6.3 (Certara L.P. (Pharsight), St. Louis, MO). The concentration versus time data were analyzed using the IV bolus or extravascular administration models. Best fit Lambda z ranges were used.
At low doses, the rate of subcutaneous absorption is slower than at high doses, leading to a lower Cmax and an overall flatter PK profile.

[2] = Single dose pharmacokinetics of EXT607 in male rats; conditions: rat, in vivo, sc; rats, after subcutaneous dosing; read-out: terminal half-life
Method: In a single dose pharmacokinetic study, EXT607 was formulated in PBS and groups of male rats (n=3) were dosed at a volume of 1 ml/kg as follows: Group 1, 100 μg/kg intravenous; Group 2, 30 μg/kg subcutaneous; Group 3, 100 μg/kg subcutaneous; Group 4, 300 μg/kg subcutaneous. Blood (0.25 mL) was collected via the jugular vein cannula, transferred into tubes containing K2EDTA, and kept on wet ice until processed for plasma. Blood samples were collected at 0 (predose), 0.083 (IV only), 0.25, 0.5, 1, 2, 4, 6, 8, 12, 24, 36, 48, 60 and 72 h postdose.
as §1, with “4)” for “5)”

[3] = Solubility in PBS (A280); type: physicochemical
Method: PEG Length and Counterion Affects Solubility: The solubility of the acetate and carbonate salt form of each compound was determined as follows. For EXT611, EXT606, and EXT608, phosphate buffered saline (PBS) was added to each compound to form a saturated solution. Undissolved compound was removed by centrifugation. The concentration of dissolved compound was determined by measuring the absorbance at 280 nm using an extinction coefficient of 18,600 M^−1 cm^−1. For EXT615, EXT616, and EXT617, solubility was limited practically by the high viscosity imparted by the large PEG moieties. Highly viscous drug formulations are difficult to manipulate and require large needle bore sizes that cause increased injection site pain. PBS was added to EXT615, EXT616, and EXT617 incrementally until a solution was obtained that could be successfully pipetted through a pipet tip with a bore of approximately 1 mm diameter (enlarged by removing the end with a razor blade). The concentration of dissolved compound was determined by measuring the absorbance at 280 nm using an extinction coefficient of 18,600 M^−1 cm^−1. […] For EXT608, the acetate salt was 17.6-fold more soluble than the carbonate salt.

[4] = target: T1, vitamin D binding protein (DBP) (Homo sapiens, UniProt P02774); assay: Bio-layer interferometry binding of DBP to immobilized biotinylated conjugate; conditions: BLI steady state fit, DBP 0-75 μM; read-out: KD (binding equilibrium constant)
T1 construct: purchased Athens Research and Technology 16-16-070307
T1 sequence (P02774 17-474): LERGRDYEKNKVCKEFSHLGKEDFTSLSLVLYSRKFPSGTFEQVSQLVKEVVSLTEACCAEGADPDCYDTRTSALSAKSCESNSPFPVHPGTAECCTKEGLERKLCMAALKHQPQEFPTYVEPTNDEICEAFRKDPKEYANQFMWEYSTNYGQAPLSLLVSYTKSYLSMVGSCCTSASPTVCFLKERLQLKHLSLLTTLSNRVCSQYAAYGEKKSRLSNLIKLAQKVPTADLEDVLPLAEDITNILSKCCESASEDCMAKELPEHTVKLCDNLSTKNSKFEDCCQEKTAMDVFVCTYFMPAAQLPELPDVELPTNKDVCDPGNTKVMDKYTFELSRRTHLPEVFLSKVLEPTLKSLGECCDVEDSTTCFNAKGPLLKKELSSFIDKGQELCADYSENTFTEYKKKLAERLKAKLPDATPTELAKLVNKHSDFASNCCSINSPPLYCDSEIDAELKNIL
Method: EXT607 and EXT608 were biotinylated using the EZ-Link Sulfo-NHS Biotin No-Weigh kit (Thermo Fisher Scientific, Waltham, MA, Catalog No. PIA39256). One mmol of biotin was reacted with 1 mmol of conjugate for 1 hour at room temperature. Unbound biotin was separated from biotinylated conjugate with a PD-10 desalting column (GE Lifesciences/Cytiva, Marlborough, MA, Catalog No. 17085101). The biotinylation ratio was quantitated using the Pierce Biotin Quantitation Kit (Thermo Fisher Scientific, Waltham, MA, Catalog No. PI28005). DBP was purchased from Athens Research and Technology (Athens, GA, Catalog No. 16-16-070307).
Affinity measurements were collected on the Octet Red96 using prehydrated Dip and Read Streptavidin (SA) Biosensors (ForteBio, Fremont, CA, Catalog No. 18-5021). Reagents were diluted into phosphate buffered saline (PBS) with 0.02% Tween 20 in a black 96-well plate. Biotinylated EXT607 or EXT608 were prepared at a biotin concentration of 50 μg/mL and loaded onto the SA tips for 2 minutes. A buffer-only negative loading control was used to measure non-specific binding of DBP to the SA biosensors. A titration of DBP ranging from 0 to 75 μM was prepared. DBP was associated to the loaded tips for 5 minutes and dissociated with buffer solution for 10 minutes.

pKd [4]: 5.28
SMILES: C=C1CC[C@H](OCCCNC(=O)CCOCCOCCOCCOCCOCCOCCOCCOCCOCCOCCOCCOCCOCCOCCOCCOCCOCCOCCOCCOCCOCCOCCOCCOCCOCCOCCOCCOCCOCCOCCOCCOCCOCCOCCOCCOCCNC(=O)CCN2C(=O)CC(SC[C@H](NC(=O)[C@H](Cc3ccccc3)NC(=O)[C@H](CC(N)=O)NC(=O)[C@H](Cc3c[nH]cn3)NC(=O)[C@@H](NC(=O)[C@H](CC(=O)O)NC(=O)[C@H](CCC(N)=O)NC(=O)[C@H](CC(C)C)NC(=O)[C@H](CCCCN)NC(=O)[C@H](CCCCN)NC(=O)[C@H](CCCNC(=N)N)NC(=O)[C@H](CC(C)C)NC(=O)[C@H](Cc3c[nH]c4ccccc34)NC(=O)[C@H](CCC(=O)O)NC(=O)[C@@H](NC(=O)[C@H](CCCNC(=N)N)NC(=O)[C@H](CCC(=O)O)NC(=O)[C@H](CCSC)NC(=O)[C@H](CO)NC(=O)[C@H](CC(N)=O)NC(=O)[C@H](CC(C)C)NC(=O)[C@H](Cc3c[nH]cn3)NC(=O)[C@H](CCCCN)NC(=O)CNC(=O)[C@H](CC(C)C)NC(=O)[C@H](CC(N)=O)NC(=O)[C@H](Cc3c[nH]cn3)NC(=O)[C@H](CCSC)NC(=O)[C@H](CC(C)C)NC(=O)[C@H](CCC(N)=O)NC(=O)[C@@H](NC(=O)[C@H](CCC(=O)O)NC(=O)[C@H](CO)NC(=O)[C@@H](NC(=O)[C@@H](N)CO)C(C)C)[C@@H](C)CC)C(C)C)C(C)C)C(N)=O)C2=O)C/C1=C/C=C1\CCC[C@]2(C)[C@@H]([C@H](C)CCCC(C)(C)O)CC[C@@H]12 (stereo partly drawn) [EXT608]
half-life [1]: 24 to 32 h
half-life [2]: 8 to 15 h
fold more soluble, acetate salt vs carbonate salt [3]: 17.6 fold
solubility ([3]; acetate salt, read-out: Solubility as Acetate): 9.67 mM
solubility ([3]; carbonate salt, read-out: Solubility as Carbonate): 0.55 mM
